# Measurements from US20080044420A1 (published 2008).
# B1: lead candidate SEQ ID NOS:48-49 (HC AA50 Gly, AA54 Asp, AA56 Ser; LC AA1 Ser, AA2 Tyr) (Fab, V domains shown)
# VH: QVQLVESGGGLVQPGGSLRLSCAASGFTFNSYWINWVRQAPGKGLEWVSGIAYDSSNTLYADSVKGRFTISRDNSKNTLYLQMNSLRAEDTAVYYCARGLGAFHWDMQPDYWGQGTLVTVSS
# VL: SYELTQPPSVSVAPGQTARISCSGDNIGGTFVSWYQQKPGQAPVLVIYDDNDRPSGIPERFSGSNSGNTATLTISGTQAEDEADYYCGTWDMVTNNVFGGGTKLTVL
# notes: also called final lead candidate
# Molecular target: T1, human IL-13R130Q (human, UniProt P35225 35-146, mildly biotinylated (approximately 1-2 molecules per molecule IL-13R130Q) in ELISA screens and receptor binding assays; not biotinylated when amine-coupled to the Biacore chip ; Mildly biotinylated …)
# T1 construct: also called IL-13 R130Q variant; biotinylated IL-13R130Q
# Test: method and antigen form not given
# Protocol: Affinity determination by surface plasmon resonance (BIAcore™). […] F1 chips (Biacore, Sweden) were coated with ˜800 RU IL-13R130Q (250 μg/ml, 10 mM acetate buffer, pH 4.0) and respective amount of HSA (20 μg/ml/10 mM acetate buffer, pH 4.5) to the reference flow cell, using standard EDC-NHS amine coupling chemistry. Due to the instability of the antigen on the chip a freshly prepared chip was used for every measurement. Regeneration was done with 2×5 μl pulses of 10 mM HCl. All kinetic measurements were performed in PBS buffer (136 mM NaCl, 2.7 mM KCl, 10 mM Na₂HPO₄, 1.76 mM KH₂PO₄ pH 7.4) at a flow rate of 20 μl/min using Fab concentration range from 1.5-500 nM. Injection time for each concentration was 1 min. All sensograms were fitted globally using BIA evaluation software 3.1. Abbreviations: EDC 1-Ethyl-3-(3-Dimethlaminopropyl) carbodiimide; NHS N-hydroxysuccinimide; RU Resonance Units
# T1 sequence (P35225 35-146 limits assumed): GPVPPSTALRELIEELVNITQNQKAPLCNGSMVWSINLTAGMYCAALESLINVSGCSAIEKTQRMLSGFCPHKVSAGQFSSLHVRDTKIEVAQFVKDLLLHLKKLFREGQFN
binder,measurement,value
B1,Kd,< 10 µM
